# Results: patent publication US5684146
# Tests used:
# [1] = biological target: haemagglutinin (HA) of human influenza A type virus strain A2/Aichi/2/68 (H3N2 subtype) (human influenza A type virus, H3N2 subtype, strain A2/Aichi/2/68) (UniProt P03437)
# [2] = biological target: haemagglutinin (HA) of human influenza A type virus strain A/Okuda/57 (H2N2 subtype) (human influenza A type virus, H2N2 subtype, strain A/Okuda/57)
# [3] = biological target: haemagglutinin (HA) of human influenza A type virus strain A/PR/8/34 (H1N1 subtype) (human influenza A type virus, H1N1 subtype, strain A/PR/8/34) (UniProt P03452)
# [4] = biological target: haemagglutinin (HA) of human influenza A type virus strain A/Kaizuka/2/65 (H2N2 subtype) (human influenza A type virus, H2N2 subtype, strain A/Kaizuka/2/65)
# [5] = biological target: haemagglutinin (HA) of human influenza A type virus strain A/Sichuan/2/87 (H3N2 subtype) (human influenza A type virus, H3N2 subtype, strain A/Sichuan/2/87)
# [6] = biological target: haemagglutinin (HA) of human influenza A type virus strain A/Kitakyushu/159/93 (H3N2 subtype) (human influenza A type virus, H3N2 subtype, strain A/Kitakyushu/159/93)
# [7] = biological target: haemagglutinin (HA) of human influenza A type virus strain A/Yamagata/120/86 (H1N1 subtype) (human influenza A type virus, H1N1 subtype, strain A/Yamagata/120/86)
# [8] = biological target: haemagglutinin (HA) of human influenza A type virus strain A2/Aichi/2/68 (H3N2 subtype) (human influenza A type virus, H3N2 subtype, strain A2/Aichi/2/68) (UniProt P03437); remark: listed apart in the source
# [9] = biological target: haemagglutinin (HA) of human influenza A type virus strain A/Okuda/57 (H2N2 subtype) (human influenza A type virus, H2N2 subtype, strain A/Okuda/57); remark: listed apart in the source
# [10] = biological target: haemagglutinin (HA) of human influenza A type virus strain A/Suita/1/90 (H3N2 subtype) (human influenza A type virus, H3N2 subtype, strain A/Suita/1/90)
# [11] = biological target: haemagglutinin (HA) of human influenza A type virus strain A1/FM/1/47 (H1N1 subtype) (human influenza A type virus, H1N1 subtype, strain A1/FM/1/47)
# [12] = biological target: haemagglutinin (HA) of human influenza A type virus strain A/Osaka/930/88 (H1N1 subtype) (human influenza A type virus, H1N1 subtype, strain A/Osaka/930/88)
# [13] = biological target: haemagglutinin (HA) of human influenza A type virus strain A/PR/8/34 (H1N1 subtype) (human influenza A type virus, H1N1 subtype, strain A/PR/8/34) (UniProt P03452); remark: listed apart in the source
# [14] = biological target: influenza B type virus strain B/Nagasaki/1/87 (influenza B type virus, strain B/Nagasaki/1/87)
# [15] = biological target: haemagglutinin (HA) of human influenza A type virus strain A/Suita/1/89 (H1N1 subtype) (human influenza A type virus, H1N1 subtype, strain A/Suita/1/89)
# [16] = biological target: haemagglutinin (HA) of human influenza A type virus strain A/Fukuoka/C29/85 (H3N2 subtype) (human influenza A type virus, H3N2 subtype, strain A/Fukuoka/C29/85)
# [17] = biological target: haemagglutinin (HA) of human influenza A type virus strain A/Izumi/5/65 (H2N2 subtype) (human influenza A type virus, H2N2 subtype, strain A/Izumi/5/65)
# [18] = biological target: haemagglutinin (HA) of human influenza A type virus strain A/Ibaraki/1/90 (H3N2 subtype) (human influenza A type virus, H3N2 subtype, strain A/Ibaraki/1/90)
# [19] = biological target: haemagglutinin (HA) of human influenza A type virus strain A/Kumamoto/1/65 (H2N2 subtype) (human influenza A type virus, H2N2 subtype, strain A/Kumamoto/1/65)
# [20] = biological target: haemagglutinin (HA) of human influenza A type virus strain A/Adachi/2/57 (H2N2 subtype) (human influenza A type virus, H2N2 subtype, strain A/Adachi/2/57)
# [21] = biological target: haemagglutinin (HA) of human influenza A type virus strain A/Bangkok/10/83 (H1N1 subtype) (human influenza A type virus, H1N1 subtype, strain A/Bangkok/10/83)
molecule,measurement,setting,value
fused polypeptide of scFv of C179 with two Fc binding domain-like structures of protein A,Absorbance at 492 nm (absorbance at 492 nm),[1],0.074
same,Absorbance at 492 nm (absorbance at 492 nm),[2],0.303
same,Absorbance at 492 nm (absorbance at 492 nm),[3],0.15
"monoclonal antibody C179 (antibody, V domains shown) VH: EVKLVESGGGLVQPGGSLRLSCGTSGFTLTDDYMTWVRQPPGKALEWLGFIRDRANGYTTEYSASVKGRFTISRDNSQSIVYLQMNTLRVEDSATYYCARPKGYFPYAMDYWGQGT VL: DIQMTQSPASQSASLGESVTITCLASQTIGTWLAWYQQKPGKSPQLLIYAATSLADGVPSRFSGSGSGTKFSFKISSLQAEDFVSYYCQQLYSTPWTF","HI activity (haemagglutination inhibition, antibody titer) (dilution ratio of the ascites fluid)",[4],< 32
same,"Neutralization activity (focus reduction neutralization test, antibody titer)",[4],2048
same,Staining activity (antibody titer),[4],410000
same,"HI activity (haemagglutination inhibition, antibody titer) (dilution ratio of the ascites fluid)",[5],< 32
same,"Neutralization activity (focus reduction neutralization test, antibody titer)",[5],< 16
same,Staining activity (antibody titer),[5],< 100
same,"HI activity (haemagglutination inhibition, antibody titer) (dilution ratio of the ascites fluid)",[6],< 32
same,"Neutralization activity (focus reduction neutralization test, antibody titer)",[6],< 16
same,Staining activity (antibody titer),[6],< 100
same,"HI activity (haemagglutination inhibition, antibody titer) (dilution ratio of the ascites fluid)",[7],< 32
same,"Neutralization activity (focus reduction neutralization test, antibody titer)",[7],1024
same,Staining activity (antibody titer),[7],410000
same,"HI activity (haemagglutination inhibition, antibody titer) (dilution ratio of the ascites fluid)",[8],< 32
same,"Neutralization activity (focus reduction neutralization test, antibody titer)",[8],< 16
same,"HI activity (haemagglutination inhibition, antibody titer) (dilution ratio of the ascites fluid)",[9],< 32
same,"Neutralization activity (focus reduction neutralization test, antibody titer)",[9],1024
same,Staining activity (antibody titer),[9],1.64e+06
same,"HI activity (haemagglutination inhibition, antibody titer) (dilution ratio of the ascites fluid)",[10],< 32
same,"Neutralization activity (focus reduction neutralization test, antibody titer)",[10],< 16
same,Staining activity (antibody titer),[10],< 100
same,"HI activity (haemagglutination inhibition, antibody titer) (dilution ratio of the ascites fluid)",[11],< 32
same,"Neutralization activity (focus reduction neutralization test, antibody titer)",[11],512
same,Staining activity (antibody titer),[11],410000
same,"HI activity (haemagglutination inhibition, antibody titer) (dilution ratio of the ascites fluid)",[12],< 32
same,"Neutralization activity (focus reduction neutralization test, antibody titer)",[12],512
same,Staining activity (antibody titer),[12],410000
same,"HI activity (haemagglutination inhibition, antibody titer) (dilution ratio of the ascites fluid)",[13],< 32
same,"Neutralization activity (focus reduction neutralization test, antibody titer)",[13],512
same,"HI activity (haemagglutination inhibition, antibody titer) (dilution ratio of the ascites fluid)",[14],< 32
same,"Neutralization activity (focus reduction neutralization test, antibody titer)",[14],< 16
same,Staining activity (antibody titer),[14],< 100
same,"HI activity (haemagglutination inhibition, antibody titer) (dilution ratio of the ascites fluid)",[15],< 32
same,"Neutralization activity (focus reduction neutralization test, antibody titer)",[15],1024
same,Staining activity (antibody titer),[15],410000
same,"HI activity (haemagglutination inhibition, antibody titer) (dilution ratio of the ascites fluid)",[16],< 32
same,"Neutralization activity (focus reduction neutralization test, antibody titer)",[16],< 16
same,Staining activity (antibody titer),[16],< 100
same,"HI activity (haemagglutination inhibition, antibody titer) (dilution ratio of the ascites fluid)",[17],< 32
same,"Neutralization activity (focus reduction neutralization test, antibody titer)",[17],1024
same,Staining activity (antibody titer),[17],410000
same,"HI activity (haemagglutination inhibition, antibody titer) (dilution ratio of the ascites fluid)",[18],< 32
same,"Neutralization activity (focus reduction neutralization test, antibody titer)",[18],< 16
same,Staining activity (antibody titer),[18],< 100
same,"HI activity (haemagglutination inhibition, antibody titer) (dilution ratio of the ascites fluid)",[19],< 32
same,"Neutralization activity (focus reduction neutralization test, antibody titer)",[19],1024
same,Staining activity (antibody titer),[19],410000
same,"HI activity (haemagglutination inhibition, antibody titer) (dilution ratio of the ascites fluid)",[20],< 32
same,"Neutralization activity (focus reduction neutralization test, antibody titer)",[20],1024
same,Staining activity (antibody titer),[20],1.64e+06
same,"HI activity (haemagglutination inhibition, antibody titer) (dilution ratio of the ascites fluid)",[21],< 32
same,"Neutralization activity (focus reduction neutralization test, antibody titer)",[21],512
same,Staining activity (antibody titer),[21],1.64e+06
